Assay results from US20180186897A1 (INSTITUTE FOR RESEARCH IN BIOMEDICINE, published 2018).
Where a chain is given by its changes, count along the chain named.

B1: MGC2 (antibody)
VH: EVQLVESGGGLVQPGGSLRLSCAASGFTFSNFWMGWVRQTPGKGLEWVANIKEDGSEKYYVDSVRGRFTISRDSAKNSLYLQMNSLRAEDTAVYYCVRERFCSNHIHKEEHLPRPSISPEPGTVITLGSHVTFVCRGPVGVQTFRLEKDSRSTYNDTEDVSQPSPSESEARFRIDSVSEGYAGLYRCLYYKPPKWSEQSDYLELLVKGDDVTWALYPSCGGDGEASDYNMDVWGKGTTVTVSS
VL: DIQMTQSPSTLSASVGDRVTISCRASQRFSGWLAWYQQKPGKAPNLLIYKASPLAGGGPSRFSGSGSGTDFTLTISSLQPDDSATYYCQHYSNYSYTFGQGTKLEIR
B2: MGC35 (antibody)
VH: EVQLVESGGGLVQPGGSLRLSCEASGFNSRSYWMTWVRQAPGKGLEWVASINQDATEKNYVDSVKGRFTISRDTAKNSLYLQMNSLRAEDTAVYYCARDRFCGGESHLHGQEDLPRPSISAEPGSVIPLGSLVTFVCRGPVGVHTFRLERGWTYNDTEDVSQAGPSESEARFRMDSVREGNAGLYRCIYYKPPKWSEQSAYLELRVKGGDVTWALLTYCGGDGEESDYPMDVWGKGTTVTVSS
VL: QTVVTQEPSLTVSPGGTVTLTCASSTGPVTSAYYPNWFQQKPGQAPRSLIYNINKKHSWTPDRFSGSLLGGKAALTLSGVQPEDEADYYCLLSCGGAQPWVFGGGTKLTVQ
B3: MGC36 (antibody)
VH: EVVLVESGGGLVQPGGSLRLSCEASGFNSRSYWMTWVRQAPGKGLEWVASINQDGTEKNYVDSVKGRFTISRDSAKNSLYLQMSSLRADDTAVYYCARDRFCGGESHLHGEEDLPRPSISAEPDTVIPLGSHVTFVCRGPVGVHTFRLERGWRYNDTEDVSQAGPSESEARFRIDSVREGNAGLYRCIYYIAPKWSEQSDYLELRVKGGDVTWALLTYCGGDGEESDYPMDVWGKGTTVTVSS
VL: B2 VL with N52S, D62A
B4: MGC4 (antibody)
VH: B3 VH with V3Q, A24G
VL: B2 VL with N52S, D62A
B5: MGD23 (antibody)
VH: QVQLQESGPGLVKPSGTLSLTCSVSGGSISSNKWWSWVRQSPGKGLEWIGEVYQTGITNYNPSLKGRVTMSVDKSKNQFSLRLTSVTAADTAVYYCATISQLRPQGDTEDLPRPSLSAEPGTVIPLGSHVTFVCRGPAGVETFRLERESRFTYNDTEDVSQASPSESEARFRIDSVSEGNAGPYRCLYYKARKWSDQSDYLELLVKGADVTWALPQSQLAPRACPQGELRISTDVFSMNVWGNGTTVTVSS
VL: AVRVTQSPTSLSASTGDRVTITCRTSQYVGNYLDWYQQKPGKAPKLLIHGVSTLQNGVPSRFSGSASGTDFTLNITCLQSEDSATYYCQQYYTSPPDFGQGTRLEIK
B6: MGD39 (antibody)
VH: QVRLQESGPGLVKPSGTLSLTCTVSGGSISAYRWWSWVRQAPGKGLEWIGQVYNDGNTNYNPSLKGRVAMSVDKSKNRFSLRLASVTAADTAVYYCATISPLRPQSDTDDLPRPSISAEPGTVIPLGSHVTFVCRGPIGVQTFRLERERRSLYSDTEDVSQVSPFASEARFRIDSVSEGNAGPYRCIYYKDRKWSDQSDYLELLVKGEDVTWALPQSQLAPRACPQEELNISTDIFSMNVWGKGTTVTVSS
VL: AIRMTQSPASLSASIGDRVTITCRTSHDVGNYLDWYQQKPGKAPKLLIHGASTLQTGVPSRFSGSGAGTDFTLNITCLQSGDFAMYYCQQYYSSPPGFGQGTRLEIK
B7: MGC37 (antibody)
VH: EVQLVESGGDLVQPGGSLRLSCAASGFTFRNYWMSWVRQTPGKGLEWVANIRQDGSEKYYVDSVKGRFTISRDNAKNLLYLQMNSLRAEDTAVYYCVRDKFCSDENHMHVADDLPRPSISPEPGTVIPLGSHVTFVCRGPVGVQTFRLEKDRRSTYNDTEDVSQPSPSESEARFRIDSVTEGNAGLYRCVYYKPPKWSDQSDFLELLVKGEDVTWALFPHCGADGEDSDYYMDVWGKGTTVTVSS
VL: DIQLTQSPSTLSASVGDRVTISCRASQRLSRSLAWYQQRPRKAPNLLIYKASPLEIGGPSRFTGSGSGTEFTLTISSLQPDDSATYYCQQYSNYSYSFGQGTKLEIR
B8: MGC1 (antibody)
VH: EVQLVESGGGLVQPGGSLRLSCVASGFNFRKSWMGWVRQAPGKGLEWVANIREDGSESFYADSVKGRFTVSRDNAKKSLYLHINSLRAEDTAVYYCARDRFCNDDEIHRHGQEDLPRPSISAAEGTVIPLGSHVTFVCRGPVGVQTFRLEKDSRSIYNDTENVSQPSPSESEARFRIDSVSEGNAGLYRCVYYKAPKWSAQSDYLELLVKGQEVTWALFTSCGGDGEEPDYDMDVRGKGTTVTVSS
VL: DIVMTQSPDSLAVSLGERATINCKSSQSVLYRSKNKNYLAWFQQKPGQPPKVLIYSTSTRASGVPDRFTGSGSGTDFTLTISSLQAEDVAVYYCLQYYITPYTFGQGTKLEIK
B9: MGD30 (antibody)
VH: QVQLQESGPGLVKPSETLSLSCAVTGGSITSSKWWTWVRQGPDKGLEWIGKIYHNGTTNYNPSLKSRVAMSVDKSRNQFSLRLTSVTAADTALYYCATASPFKSHHRTTEKLPRPSISAEPGTVIPLGSRVTFVCRGPVGVQTFRLERETSFTYNDTEDVSQVSPSESEARFRIDSVSEGYAGPYRCVYYKAPKWSEQSDYLDLLVKGEDVTWALTQPQLDPRACPQGDLRMSTDIYCMDVWGKGTTVTVSS
VL: AIRLTQSPSSLSASIGDRVTITCRASQDISTFLAWYQQESGKAPRLLIFAASTLQTGVPSRFSGSGSGTDFTLTISGLQSEDFATYYCQQYYCFPPDFGQGTRLDIK
B10: MGD33 (antibody)
VH: B9 VH with Q1H, R76K, L93V, S151R, F152S
VL: B9 VL with F32Y, T53S
B11: MGD34 (antibody)
VH: EVQLVESGPGLMKTSGTLSLTCAVSGDYVNTNRRWSWVRQAPGKGLEWIGEVHQSGRTNYNPSLKSRVTISVDKSKNQFSLKVDSVTAADTAVYYCARASPLKSQRDTEDLPRPSISAEPGTVIPLGSHVTFVCRGPVGVQTFRLERERNYLYSDTEDVSQTSPSESEARFRIDSVNAGNAGLFRCIYYKSRKWSEQSDYLELVVKGEDVTWALSQSQVDPRACPQGELPISTDIYYVDVWGNGTTFTVSS
VL: AIRMTQSPSSLSASPGDKVSITCRASQHINDSLAWFQQRPGKAPKLLIYGASNLHSGVPSRFSGTGSGTDFTLTITGLQSEDFATYFCQQCNCFPPDFGQGTRLEIK
B12: MGD35 (antibody)
VH: QVQLQESGPGLVKPSGTLSLTCAVSGASISSINWWSWVRQTPEKGLEWIGQIHHNGSTNYNPSLKSRVAISVDKSKNQFSLKLTSFTAADTAVYYCATASSLKSQRDTNLPRPSLSAEPGTVIPLGSPVTFVCRGPVGVHTFRLERAGRSTYNDTEDVSHPSPSESEARFRIDSVSEGNAGPYRCVYYKSSKWSEESYCLDLLVKTEDVTWARPQPQLDPRACPQGDLRISTDFYYMDVWGKGTTVTVSS
VL: AIRMTQSPSSLSASTGDRVTITCRTSQAIGTYLAWYQQNPGKAPNLLIYNASTLQSGVPSRFSASGSGTDFTLTISGLQSDDFVTYFCQHYYNYPPAFGQGTRLEIQ

Target: erythrocytes infected with P. falciparum field isolate 10936
Experiment: flow cytometry, staining of IEs

| Binder | % parasite recognition |
| --- | --- |
| B1 | 2.8% |
| B2 | 2.5% |
| B3 | 2.7% |
| B4 | 2.3% |
| B5 | 4.3% |
| B6 | 10.5% |
| B7 | 4.1% |
| B8 | 2% |
| B9 | 2.6% |
| B10 | 6.1% |
| B11 | 8.1% |

Target: erythrocytes infected with P. falciparum field isolate 10975
Experiment: flow cytometry, staining of IEs

| Binder | % parasite recognition |
| --- | --- |
| B1 | 2.6% |
| B2 | 7.4% |
| B3 | 8.6% |
| B4 | 6.7% |
| B5 | 3.4% |
| B6 | 14.1% |
| B7 | 7.5% |
| B8 | 1.4% |
| B9 | 6.5% |
| B10 | 14.2% |
| B11 | 11.2% |

Target: erythrocytes infected with P. falciparum field isolate 11014
Experiment: flow cytometry, staining of IEs

| Binder | % parasite recognition |
| --- | --- |
| B1 | 1.5% |
| B2 | 3.6% |
| B3 | 4.6% |
| B4 | 3.6% |
| B5 | 6.3% |
| B6 | 11.5% |
| B7 | 5.8% |
| B8 | 3.4% |
| B9 | 3.4% |
| B10 | 7% |
| B11 | 13% |

Target: erythrocytes infected with P. falciparum field isolate 11019
Experiment: flow cytometry, staining of IEs

| Binder | % parasite recognition |
| --- | --- |
| B1 | 11.9% |
| B2 | 3.2% |
| B3 | 17.9% |
| B4 | 31.1% |
| B5 | 7.8% |
| B6 | 43% |
| B7 | 51.8% |
| B8 | 32.7% |
| B12 | 6.3% |
| B9 | 4.4% |
| B10 | 9.6% |
| B11 | 46.6% |

Target: erythrocytes infected with P. falciparum field isolate 9106
Experiment: flow cytometry, staining of IEs

| Binder | % parasite recognition |
| --- | --- |
| B1 | 5.6% |
| B2 | 6.5% |
| B3 | 6.9% |
| B4 | 6.7% |
| B5 | 5.7% |
| B6 | 13.7% |
| B7 | 7.2% |
| B8 | 6.7% |
| B12 | 6.1% |
| B9 | 4.2% |
| B10 | 4.3% |
| B11 | 5% |

Target: erythrocytes infected with P. falciparum field isolate 9215
Experiment: flow cytometry, staining of IEs

| Binder | % parasite recognition |
| --- | --- |
| B1 | 28.8% |
| B2 | 19.5% |
| B3 | 12.4% |
| B4 | 21.7% |
| B5 | 11.4% |
| B6 | 37.4% |
| B7 | 9.9% |
| B8 | 14.9% |
| B9 | 9% |
| B10 | 15.5% |
| B11 | 35.7% |

Target: erythrocytes infected with P. falciparum field isolate 9605
Experiment: flow cytometry, staining of IEs

| Binder | % parasite recognition |
| --- | --- |
| B1 | 22.4% |
| B2 | 15.9% |
| B3 | 17.9% |
| B4 | 22.2% |
| B5 | 14.7% |
| B6 | 31.7% |
| B7 | 22.2% |
| B8 | 19.5% |
| B12 | 3.6% |
| B9 | 7.4% |
| B10 | 12.3% |
| B11 | 28.4% |

Target: erythrocytes infected with P. falciparum field isolate 9775
Experiment: flow cytometry, staining of IEs

| Binder | % parasite recognition |
| --- | --- |
| B1 | 2.9% |
| B2 | 7.2% |
| B3 | 6.2% |
| B4 | 6.1% |
| B5 | 7.3% |
| B6 | 15% |
| B7 | 4% |
| B8 | 5.7% |
| B9 | 5.6% |
| B10 | 8.5% |
| B11 | 16% |
